# Data published in the Human Domainome abundance scans (Beltran et al. 2025).
# ± gives the uncertainty stated by the source.
# B1: POU domain, class 2, transcription factor 1, residues 285 to 354; numbered along this chain, P14859 (parent)
# chain: LEELEQFAKTFKQRRIKLGFTQGDVGLAMGKLYGNDFSQTTISRFEALNLSFKNMCKLKPLLEKWLNDAE
# Variants of: B1
# Test: abundance fitness (aPCA) (normalised: wild type 0, dead -1); higher = more abundant; growth selection in yeast, the domain comes from the species named
# Details: Homo sapiens
row,Variant,abundance fitness
1,F45E,-1.01 ± 0.11
2,F45T,-0.847 ± 0.058
3,F45C,-0.451 ± 0.081
4,F45K,-0.97 ± 0.052
5,F45N,-1.04 ± 0.086
6,F45S,-0.864 ± 0.055
7,F45H,-0.952 ± 0.052
8,F45P,-1.04 ± 0.07
9,C56A,-0.004 ± 0.023
10,C56H,-0.085 ± 0.04
11,C56M,0.034 ± 0.064
12,C56S,0.032 ± 0.022
13,C56K,-0.201 ± 0.08
14,C56G,-0.047 ± 0.022
15,C56Q,0.063 ± 0.041
16,C56V,-0.01 ± 0.036
17,C56F,0.027 ± 0.066
18,C56P,-0.681 ± 0.029
19,C56L,-0.016 ± 0.033
20,C56I,-0.014 ± 0.088
21,C56W,-0.005 ± 0.039
22,C56T,0.023 ± 0.027
23,C56Y,0.042 ± 0.081
24,K53R,0.015 ± 0.021

row,Variant,abundance fitness
1,K53E,0.039 ± 0.053
2,K53N,0.063 ± 0.21
3,K53G,-0.017 ± 0.023
4,K53T,-0.028 ± 0.042
5,K53V,-0.048 ± 0.039
6,K53M,0.078 ± 0.15
7,K53H,-0.024 ± 0.058
8,K53A,0.049 ± 0.021
9,K53Y,-0.122 ± 0.072
10,K53L,0.008 ± 0.035
11,K53I,0.089 ± 0.14
12,K53D,-0.029 ± 0.057
13,K53P,0.007 ± 0.022
14,K53C,0.015 ± 0.03
15,K53S,-0.006 ± 0.024
16,K53Q,-0.019 ± 0.042
17,K53F,0.041 ± 0.066
18,I42Q,-0.948 ± 0.071
19,I42S,-0.997 ± 0.062
20,I42H,-0.983 ± 0.17
21,I42L,-0.074 ± 0.032
22,I42G,-1.09 ± 0.058
23,I42W,-0.655 ± 0.079
24,I42R,-0.869 ± 0.051

row,Variant,abundance fitness
1,I42P,-0.877 ± 0.04
2,I42K,-0.789 ± 0.08
3,I42D,-1.08 ± 0.1
4,I42Y,-0.674 ± 0.25
5,I42A,-0.655 ± 0.021
6,I42C,-0.336 ± 0.16
7,I42N,-0.805 ± 0.091
8,I42M,-0.276 ± 0.047
9,N49W,-0.218 ± 0.047
10,N49G,-0.002 ± 0.053
11,N49R,-0.079 ± 0.049
12,N49I,0.025 ± 0.06
13,N49Q,0.007 ± 0.036
14,N49H,-0.063 ± 0.074
15,N49S,-0.004 ± 0.023
16,N49Y,-0.063 ± 0.086
17,N49K,-0.045 ± 0.05
18,N49T,0.03 ± 0.029
19,N49E,0.043 ± 0.045
20,N49P,-0.65 ± 0.026
21,N49V,-0.052 ± 0.032
22,N49L,-0.029 ± 0.021
23,N49F,-0.279 ± 0.056
24,N49C,-0.086 ± 0.1

row,Variant,abundance fitness
1,N49D,0.033 ± 0.21
2,A47S,-0.048 ± 0.14
3,A47G,0.001 ± 0.024
4,A47N,0.033 ± 0.11
5,A47P,-0.964 ± 0.047
6,A47D,0.092 ± 0.087
7,A47H,-0.107 ± 0.059
8,A47R,-0.044 ± 0.022
9,A47L,0.054 ± 0.28
10,A47Q,0.017 ± 0.022
11,A47E,0.055 ± 0.027
12,A47K,-0.015 ± 0.028
13,M55V,-0.167 ± 0.041
14,M55L,-0.013 ± 0.025
15,M55I,-0.086 ± 0.05
16,M55D,-0.381 ± 0.073
17,M55Y,-0.153 ± 0.027
18,M55K,-0.51 ± 0.038
19,M55R,-0.48 ± 0.023
20,M55E,-0.488 ± 0.051
21,M55F,-0.107 ± 0.04
22,M55H,-0.247 ± 0.033
23,M55P,-0.991 ± 0.055
24,M55S,-0.1 ± 0.024

row,Variant,abundance fitness
1,M55Q,-0.034 ± 0.028
2,M55C,-0.12 ± 0.029
3,M55G,-0.068 ± 0.043
4,M55W,-0.271 ± 0.031
5,F52V,0.009 ± 0.021
6,F52S,-0.017 ± 0.029
7,F52Y,0.001 ± 0.028
8,F52M,-0.026 ± 0.026
9,F52H,0.059 ± 0.046
10,F52G,-0.059 ± 0.025
11,F52T,0.02 ± 0.072
12,F52Q,-0.059 ± 0.039
13,F52A,0.017 ± 0.079
14,F52R,-0.001 ± 0.022
15,F52W,-0.002 ± 0.025
16,F52L,-0.005 ± 0.019
17,F52E,-0.035 ± 0.039
18,F52P,-0.324 ± 0.17
19,F52K,-0.024 ± 0.032
20,F52N,-0.039 ± 0.041
21,F52D,0.007 ± 0.043
22,F52C,-0.037 ± 0.031
23,F52I,0.013 ± 0.03
24,L50G,-0.074 ± 0.024

row,Variant,abundance fitness
1,L50P,-0.678 ± 0.026
2,L50E,-0.041 ± 0.044
3,L50S,-0.151 ± 0.025
4,L50Y,-0.03 ± 0.053
5,L50I,-0.135 ± 0.083
6,L50W,-0.148 ± 0.04
7,L50A,-0.121 ± 0.024
8,L50R,-0.738 ± 0.023
9,L50C,0.007 ± 0.036
10,L50D,-0.026 ± 0.051
11,L50T,-0.073 ± 0.026
12,L50Q,-0.207 ± 0.03
13,L50N,-0.385 ± 0.075
14,L50M,0.038 ± 0.046
15,L50V,-0.1 ± 0.042
16,K57H,-0.069 ± 0.035
17,K57W,-0.042 ± 0.032
18,K57R,-0.047 ± 0.026
19,K57Y,0.031 ± 0.028
20,K57C,0.005 ± 0.035
21,K57S,-0.006 ± 0.02
22,K57L,-0.005 ± 0.02
23,K57P,-0.451 ± 0.022
24,K57E,-0.004 ± 0.068

row,Variant,abundance fitness
1,K57Q,-0.018 ± 0.032
2,K57M,-0.063 ± 0.037
3,K57F,-0.027 ± 0.033
4,K57D,0.04 ± 0.056
5,K57V,-0.024 ± 0.037
6,K57I,-0.058 ± 0.057
7,K57A,-0.031 ± 0.03
8,K57G,-0.082 ± 0.05
9,L48V,-0.085 ± 0.074
10,L48S,-0.005 ± 0.023
11,L48K,0.084 ± 0.036
12,L48M,-0.007 ± 0.035
13,L48W,-0.142 ± 0.065
14,L48F,-0.054 ± 0.039
15,L48C,0.001 ± 0.086
16,L48A,-0.054 ± 0.081
17,L48R,0.004 ± 0.058
18,L48Q,0.006 ± 0.031
19,L48I,0.014 ± 0.04
20,L48Y,-0.053 ± 0.046
21,L48N,-0.03 ± 0.059
22,L48T,-0.004 ± 0.032
23,L48P,-0.336 ± 0.026
